Experimental data as given in IntAct's records for PubMed 29039417.

B1: Protein PTHB1 (Homo sapiens), Q3SYG4 (parent)
chain: MSLFKARDWWSTILGDKEEFDQGCLCLANVDNSGNGQDKIIVGSFMGYLRIFSPHPAKTGDGAQAEDLLLEVDLRDPVLQVEVGKFVSGTEMLHLAVLHSRKLCVYSVSGTLGNVEHGNQCQMKLMYEHNLQRTACNMTYGSFGGVKGRDLICIQSMDGMLMVFEQESYAFGRFLPGFLLPGPLAYSSRTDSFLTVSSCQQVESYKYQVLAFATDADKRQETEQQKLGSGKRLVVDWTLNIGEQALDICIVSFNQSASSVFVLGERNFFCLKDNGQIRFMKKLDWSPSCFLPYCSVSEGTINTLIGNHNNMLHIYQDVTLKWATQLPHIPVAVRVGCLHDLKGVIVTLSDDGHLQCSYLGTDPSLFQAPNVQSRELNYDELDVEMKELQKIIKDVNKSQGVWPMTEREDDLNVSVVVSPNFDSVSQATDVEVGTDLVPSVTVKVTLQNRVILQKAKLSVYVQPPLELTCDQFTFEFMTPDLTRTVSFSVYLKRSYTPSELEGNAVVSYSRPTDRNPDGIPRVIQCKFRLPLKLICLPGQPSKTASHKITIDTNKSPVSLLSLFPGFASQSDDDQVNVMGFHFLGGARITVLASKTSQRYRIQSEQFEDLWLITNELILRLQEYFEKQGVKDFACSFSGSIPLQEYFELIDHHFELRINGEKLEELLSERAVQFRAIQRRLLARFKDKTPAPLQHLDTLLDGTYKQVIALADAVEENQGNLFQSFTRLKSATHLVILLIALWQKLSADQVAILEAAFLPLQEDTQELGWEETVDAAISHLLKTCLSKSSKEQALNLNSQLNIPKDTSQLKKHITLLCDRLSKGGRLCLSTDAAAPQTMVMPGGCTTIPESDLEERSVEQDSTELFTNHRHLTAETPRPEVSPLQGVSE
partner: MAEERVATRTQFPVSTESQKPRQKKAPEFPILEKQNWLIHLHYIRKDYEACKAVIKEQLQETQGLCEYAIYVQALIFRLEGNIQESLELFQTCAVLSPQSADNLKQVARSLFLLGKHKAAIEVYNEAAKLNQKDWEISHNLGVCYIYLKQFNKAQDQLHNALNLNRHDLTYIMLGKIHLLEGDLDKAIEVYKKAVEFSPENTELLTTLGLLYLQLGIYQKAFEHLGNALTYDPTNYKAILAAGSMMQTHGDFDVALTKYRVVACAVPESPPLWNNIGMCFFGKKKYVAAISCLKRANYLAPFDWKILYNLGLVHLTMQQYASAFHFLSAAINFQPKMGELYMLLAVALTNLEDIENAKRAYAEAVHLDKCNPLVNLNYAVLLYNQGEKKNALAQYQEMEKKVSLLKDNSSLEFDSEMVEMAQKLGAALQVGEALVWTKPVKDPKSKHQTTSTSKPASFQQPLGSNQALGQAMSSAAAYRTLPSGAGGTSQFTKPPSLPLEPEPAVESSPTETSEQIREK

Variants of: B1
Conditions: with bbs4_human BBS4, Q96RK4

effect of a mutation on the interaction	Variant
with no effect	S828A
with no effect	S828E
with no effect	S828K
with no effect	H811K
with no effect	H811A
with no effect	H811E
with no effect	S797E
with no effect	S797A
with no effect	S797K
with no effect	A775E
with no effect	A775K
with no effect	P834K
with no effect	P834A
with no effect	P834E
with no effect	T836A
with no effect	L799A
with no effect	L799E
with no effect	L799K
with no effect	L819A
with no effect	L819K
with no effect	L819E
with no effect	S806A
with no effect	S806K

effect of a mutation on the interaction	Variant
with no effect	S806E
with no effect	H778A
with no effect	H778E
with no effect	H778K
with no effect	R824K
with no effect	R824A
with no effect	R824E
with no effect	T782A
with no effect	T782K
with no effect	T782E
with no effect	D817K
with no effect	D817E
with no effect	D817A
with no effect	Q835K
disrupting interaction strength	Q835M
with no effect	Q835E
with no effect	Q835A
with no effect	A774E
with no effect	A774K
disrupting interaction strength	A833S
with no effect	A833K
with no effect	A833E
with no effect	K789A

effect of a mutation on the interaction	Variant
with no effect	K789E
with no effect	L814E
with no effect	L814A
with no effect	L814K
with no effect	L808K
with no effect	L808A
with no effect	L808E
with no effect	S777A
disrupting interaction strength	S777E
with no effect	S777K
with no effect	E790K
with no effect	E790A
with no effect	T829E
with no effect	T829A
with no effect	T829K
with no effect	K821A
with no effect	K821E
with no effect	L825E
with no effect	L825K
with no effect	L825A
with no effect	K809E
with no effect	K809A
with no effect	K803A

effect of a mutation on the interaction	Variant
with no effect	K803E
with no effect	C826E
with no effect	C826A
with no effect	C826K
disrupting interaction strength	C826R
with no effect	L780A
with no effect	L780K
with no effect	L780E
with no effect	Q791E
with no effect	Q791K
disrupting interaction strength	Q791L
with no effect	Q791A
with no effect	L793A
with no effect	L793E
with no effect	L793K
with no effect	L827A
with no effect	L827E
with no effect	L827K
with no effect	C783E
with no effect	C783A
with no effect	C783K
with no effect	I776A
with no effect	I776K

effect of a mutation on the interaction	Variant
with no effect	I776E
with no effect	D830A
with no effect	D830K
with no effect	D830E
disrupting interaction strength	D804F
with no effect	D804E
with no effect	D804K
with no effect	D804A
with no effect	N796K
with no effect	N796A
with no effect	N796E
with no effect	G823K
with no effect	G823E
with no effect	G823A
with no effect	C816A
with no effect	C816E
with no effect	C816K
with no effect	A832K
with no effect	A832E
with no effect	R818A
with no effect	R818K
disrupting interaction strength	R818T
with no effect	R818E

effect of a mutation on the interaction	Variant
with no effect	P802K
with no effect	P802E
with no effect	P802A
disrupting interaction strength	P802T
with no effect	K786E
with no effect	K786A
with no effect	Q807E
with no effect	Q807A
with no effect	Q807K
with no effect	T805E
with no effect	T805A
with no effect	T805K
with no effect	L784K
with no effect	L784A
with no effect	L784E
with no effect	L815K
with no effect	L815E
with no effect	L815A
with no effect	N800A
with no effect	N800E
with no effect	N800K
with no effect	L779E
with no effect	L779A

effect of a mutation on the interaction	Variant
with no effect	L779K
with no effect	S787A
with no effect	S787K
with no effect	S787E
with no effect	A792K
with no effect	A792E
with no effect	I812K
with no effect	I812A
with no effect	I812E
with no effect	Q798A
disrupting interaction strength	Q798K
with no effect	Q798E
with no effect	A831E
with no effect	A831K
with no effect	N794A
with no effect	N794K
with no effect	N794E
with no effect	D773E
with no effect	D773K
with no effect	S785A
disrupting interaction strength	S785K
with no effect	S785E
with no effect	G822E

effect of a mutation on the interaction	Variant
with no effect	G822A
with no effect	G822K
with no effect	K810E
with no effect	K810A
with no effect	I801E
with no effect	I801K
disrupting interaction strength	I801A
with no effect	L795E
with no effect	L795A
with no effect	L795K
with no effect	K781A
with no effect	K781E
with no effect	T813K
with no effect	T813E
with no effect	T813A
with no effect	S788A
with no effect	S788E
with no effect	S788K
with no effect	S820A
with no effect	S820K
with no effect	S820E
